What follows are sequences tested on Escherichia coli TOP10 (assay: shrunken log2 fold change of peptide-encoding DNA abundance (4.5 h post-induction vs induction); higher = less antimicrobial activity (less host growth inhibition)). Settings: time post-induction: 4.5 h; library: site-saturation at positions 5, 18, 19, 20.
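Note: peptides expressed intracellularly from a pBAD plasmid library in pooled LB shake-flask culture, induced with 0.3% L-arabinose, DNA abundance read by NGS, three biological replicates, DESeq2 with apeglm shrinkage.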

| Sequence | shrunken log2 fold change |
| --- | --- |
| RRIRIRPPRLPRPRPRPCCYPRP | -0.495 |
| RRIRTRPPRLPRPRPRPWCLPRP | -0.596 |
| RRIRIRPPRLPRPRPRPILWPRP | -0.238 |
| RRIRERPPRLPRPRPRPEGIPRP | 0.0236 |
| RRIRARPPRLPRPRPRPPRSPRP | 1.12 |
| RRIRGRPPRLPRPRPRPVIWPRP | 0.886 |
| RRIRYRPPRLPRPRPRPIRRPRP | -0.0923 |
| RRIRSRPPRLPRPRPRPWTHPRP | -0.373 |
| RRIRVRPPRLPRPRPRPKQYPRP | -0.558 |
| RRIRIRPPRLPRPRPRPMETPRP | -0.0335 |
| RRIRFRPPRLPRPRPRPVKEPRP | -0.0554 |
| RRIRARPPRLPRPRPRPVAAPRP | 1.54 |
| RRIRARPPRLPRPRPRPKICPRP | 0.0997 |
| RRIRMRPPRLPRPRPRPRQDPRP | 0.271 |
| RRIRQRPPRLPRPRPRPCYWPRP | -0.229 |
| RRIRERPPRLPRPRPRPKCFPRP | -0.193 |
| RRIRMRPPRLPRPRPRPVPYPRP | 0.193 |
| RRIRYRPPRLPRPRPRPFDKPRP | -0.0924 |
| RRIRGRPPRLPRPRPRPAVTPRP | 0.688 |
| RRIRHRPPRLPRPRPRPWFNPRP | -0.153 |
| RRIRQRPPRLPRPRPRPVPGPRP | -0.141 |
| RRIRNRPPRLPRPRPRPQKVPRP | 0.007 |
| RRIRVRPPRLPRPRPRPGFPPRP | 0.141 |
| RRIRSRPPRLPRPRPRPLHTPRP | 0.0576 |
| RRIRIRPPRLPRPRPRPDLLPRP | -0.634 |

| Sequence | shrunken log2 fold change |
| --- | --- |
| RRIRRRPPRLPRPRPRPVWGPRP | 0.359 |
| RRIRTRPPRLPRPRPRPPHRPRP | -0.0645 |
| RRIRGRPPRLPRPRPRPSTSPRP | 0.315 |
| RRIRIRPPRLPRPRPRPVCIPRP | -0.527 |
| RRIRQRPPRLPRPRPRPRVGPRP | 0.71 |
| RRIRTRPPRLPRPRPRPNGNPRP | -0.302 |
| RRIRQRPPRLPRPRPRPRTPPRP | 0.676 |
| RRIRRRPPRLPRPRPRPKSEPRP | 0.0316 |
| RRIRNRPPRLPRPRPRPMQDPRP | -0.0611 |
| RRIRQRPPRLPRPRPRPSDQPRP | 0.152 |
| RRIRWRPPRLPRPRPRPKWLPRP | 0.19 |
| RRIRVRPPRLPRPRPRPDISPRP | -0.0643 |
| RRIRQRPPRLPRPRPRPAFLPRP | -0.0387 |
| RRIRTRPPRLPRPRPRPRPGPRP | 0.621 |
| RRIRVRPPRLPRPRPRPDLWPRP | 0.115 |
| RRIRWRPPRLPRPRPRPVNIPRP | 0.0116 |
| RRIRYRPPRLPRPRPRPIKMPRP | -0.666 |
| RRIRKRPPRLPRPRPRPLIGPRP | 0.28 |
| RRIRLRPPRLPRPRPRPAVPPRP | 0.3 |
| RRIRHRPPRLPRPRPRPFAKPRP | -0.362 |
| RRIRLRPPRLPRPRPRPMITPRP | -0.07 |
| RRIRPRPPRLPRPRPRPALFPRP | 0.2 |
| RRIRDRPPRLPRPRPRPRRSPRP | 0.174 |
| RRIRERPPRLPRPRPRPIYQPRP | -0.394 |
| RRIRIRPPRLPRPRPRPMSLPRP | -0.0475 |

| Sequence | shrunken log2 fold change |
| --- | --- |
| RRIRNRPPRLPRPRPRPEQLPRP | 0.389 |
| RRIRFRPPRLPRPRPRPMVIPRP | 0.023 |
| RRIRGRPPRLPRPRPRPELQPRP | 2.19 |
| RRIRDRPPRLPRPRPRPSYHPRP | -0.835 |
| RRIRARPPRLPRPRPRPTNVPRP | 0.0619 |
| RRIRARPPRLPRPRPRPLFAPRP | 0.647 |
| RRIRQRPPRLPRPRPRPKEGPRP | -0.0167 |
| RRIRMRPPRLPRPRPRPPMWPRP | -0.0434 |
| RRIRARPPRLPRPRPRPYKAPRP | -0.302 |
| RRIRSRPPRLPRPRPRPVCNPRP | 0.413 |
| RRIRERPPRLPRPRPRPVDFPRP | -0.0586 |
| RRIRPRPPRLPRPRPRPAGCPRP | 0.386 |
| RRIRDRPPRLPRPRPRPQMTPRP | 0.103 |
| RRIRVRPPRLPRPRPRPSICPRP | -0.208 |
| RRIRWRPPRLPRPRPRPDCDPRP | 0.799 |
| RRIRERPPRLPRPRPRPERDPRP | -0.0208 |
| RRIRSRPPRLPRPRPRPECDPRP | 0.262 |
| RRIRQRPPRLPRPRPRPEVSPRP | 0.116 |
| RRIRDRPPRLPRPRPRPMWVPRP | 0.179 |
| RRIRERPPRLPRPRPRPGLIPRP | 0.101 |
| RRIRERPPRLPRPRPRPIRYPRP | -0.00369 |
| RRIRFRPPRLPRPRPRPDKAPRP | -0.0262 |
| RRIRLRPPRLPRPRPRPFNHPRP | -0.249 |
| RRIRPRPPRLPRPRPRPQKEPRP | 0.0431 |
| RRIRCRPPRLPRPRPRPWPWPRP | 0.0405 |

Source: the supplement of paper PMC9112550, “Optimization of the antimicrobial peptide Bac7 by deep mutational scanning” (BMC Biology, 2022)
